According to the supplement of paper PMC7877785:
± gives the uncertainty stated by the source.

Assay: self-splicing fitness, log relative to wild type (ln ratio); higher = more splicing; Tetrahymena group I intron in knt gene, E. coli kanamycin selection, DiMSum; sequences stand for … in CUCUCU…GGAGGGAAAAGUUAUCAGGCAUGCACCUGGUAGCUAGUCUUUAAACCAAUAGAUUGCAUCGGUUUAAAAGGCAAGACCGUCAAAUUGCGGGAAAGGGGUCAACAGCCGUUCAGUACCAAGUCUCAGGGGAAACUUUGAGAUGGCCUUGCAAAGGGUAUGGUAAUAAGCUGACGGACAUGGUCCUAACCACGCAGCCAAGUCCUAAGUCAACAGAUCUUCUGUUGAUAUGGAUGCAGUUCACAGACUAAAUGUCGGUCGGGGAAGAUGUAUUCUUCUCAUAAGAUAUAGUCGGACCUCUCCUUAAUGGGAGCUAGCGGAUGAAGUGAUGCAACACUGGAGCCGCUGGGAACUAAUUUGUAUGCGAAAGUAUAUUGAUUAGUUUUGGAGUACUCGUGGUCG
Summary of the method: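 Six replicate transformations of E. coli BL21(DE3) with a pET-22b(+) library were grown overnight at 37°C or 30°C. The library randomised all eight P1ex-region intron nucleotides, the intron lying in the knt kanamycin-resistance gene, and plates were LB agar with or without 25 μg/mL kanamycin plus 100 μg/mL carbenicillin, 50 μM IPTG and 0.2% rhamnose. Pooled colonies were amplicon-sequenced on an Illumina HiSeq 2500, and fitness is the DiMSum error-weighted combination of wild-type-normalised replicate fold changes, kanamycin versus none.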

Sequence | self-splicing fitness (ln) (30 °C) | self-splicing fitness (ln) (37 °C)
UGACAGCAAUAUUACGUAUG | -1.56 ± 0.058 | -0.368 ± 0.073
ACAGAGCAAUAUUACGCUCU | -3.01 ± 0.24 | -2.41 ± 0.49
CAUCAGCAAUAUUACGAUCC | -1.56 ± 0.12 | -0.817 ± 0.16
CACUAGCAAUAUUACGUGUG | -3.71 ± 0.14 | -2.82 ± 0.16
CCAAAGCAAUAUUACGUAUU | -4.14 ± 0.13 | -2.71 ± 0.12
AGCCAGCAAUAUUACGACUG | -2.72 ± 0.091 | -1.14 ± 0.095
UGUCAGCAAUAUUACGAUUG | -0.341 ± 0.076 | 0.249 ± 0.12
CGACAGCAAUAUUACGGGUU | -3.47 ± 0.12 | -2.01 ± 0.12
UCUCAGCAAUAUUACGGGUG | -0.627 ± 0.072 | -0.219 ± 0.083
GGAUAGCAAUAUUACGACGC | -0.274 ± 0.11 | 0.262 ± 0.12
GCAGAGCAAUAUUACGGAAU | -3.4 ± 0.36 | -1.51 ± 0.34
GCUAAGCAAUAUUACGUCAA | -1.5 ± 0.26 | -1.76 ± 0.32
GUCUAGCAAUAUUACGCUGG | -2.84 ± 0.36 | -2.2 ± 0.27
CUUCAGCAAUAUUACGCUUU | – | -2.85 ± 0.31
UGGUAGCAAUAUUACGGACA | -0.879 ± 0.12 | 0.135 ± 0.16
GGUGAGCAAUAUUACGGAUC | -0.748 ± 0.076 | 0.263 ± 0.11
AAGGAGCAAUAUUACGAGGC | -2.89 ± 0.17 | -2.41 ± 0.44
UACUAGCAAUAUUACGAGGA | -3.18 ± 0.2 | -1.54 ± 0.13
CAAUAGCAAUAUUACGUCAC | -2.04 ± 0.2 | -2.71 ± 0.43
CGCAAGCAAUAUUACGAUCG | -1.19 ± 0.1 | -0.342 ± 0.14
ACGUAGCAAUAUUACGACGU | -2.97 ± 0.15 | -2.31 ± 0.19
GUACAGCAAUAUUACGAAUU | -2.29 ± 0.16 | -1.69 ± 0.15
CUGCAGCAAUAUUACGAUUA | -3.35 ± 0.28 | -2.32 ± 0.16
UCAAAGCAAUAUUACGUGGG | -2.85 ± 0.098 | -2.17 ± 0.12

Sequence | self-splicing fitness (ln) (30 °C) | self-splicing fitness (ln) (37 °C)
AACCAGCAAUAUUACGCCGC | -4.1 ± 0.3 | -2.45 ± 0.35
GGUCAGCAAUAUUACGGAAC | -1.04 ± 0.1 | -0.383 ± 0.14
CAAAAGCAAUAUUACGUCGG | -0.932 ± 0.073 | -0.25 ± 0.1
CGCCAGCAAUAUUACGUGAU | -3.42 ± 0.088 | -2.27 ± 0.11
AUUGAGCAAUAUUACGGAGG | -2.97 ± 0.22 | –
UCGUAGCAAUAUUACGGCUA | -0.508 ± 0.32 | -1.81 ± 0.23
UCUCAGCAAUAUUACGAGAG | -2.76 ± 0.11 | -1.46 ± 0.11
UGGGAGCAAUAUUACGUCUG | -1.46 ± 0.12 | -0.899 ± 0.17
CACUAGCAAUAUUACGGUUC | -2.4 ± 0.12 | -1.45 ± 0.16
CCGGAGCAAUAUUACGCGUG | -1.09 ± 0.14 | -0.996 ± 0.16
CACCAGCAAUAUUACGGGGG | -3.36 ± 0.11 | -2.64 ± 0.18
AGGUAGCAAUAUUACGAUGU | -0.919 ± 0.013 | -0.474 ± 0.033
AAUUAGCAAUAUUACGAGGG | -3.23 ± 0.23 | -2.93 ± 0.3
GUCCAGCAAUAUUACGGAUC | -4.49 ± 0.28 | -3.62 ± 0.27
AAGGAGCAAUAUUACGUUAC | – | -1.53 ± 0.35
AUCGAGCAAUAUUACGCGUG | -2.55 ± 0.13 | -1.2 ± 0.14
ACCUAGCAAUAUUACGCACC | -1.24 ± 0.14 | 0.276 ± 0.16
GUCUAGCAAUAUUACGUCGA | -2.12 ± 0.14 | -0.957 ± 0.13
GAUAAGCAAUAUUACGGCCC | -0.576 ± 0.19 | -0.0157 ± 0.28
UAUAAGCAAUAUUACGGAUU | -3.03 ± 0.21 | -1.51 ± 0.19
UUGGAGCAAUAUUACGACGG | 0.664 ± 0.22 | -0.775 ± 0.29
CCAUAGCAAUAUUACGGGGG | -3.01 ± 0.16 | -3.36 ± 0.31
GAGUAGCAAUAUUACGAUGU | -2.23 ± 0.11 | -0.716 ± 0.12
GGCAAGCAAUAUUACGCAGG | -2.1 ± 0.12 | -2.29 ± 0.2

Sequence | self-splicing fitness (ln) (30 °C) | self-splicing fitness (ln) (37 °C)
GGGUAGCAAUAUUACGGCCU | -3.57 ± 0.38 | -2.14 ± 0.46
AAGUAGCAAUAUUACGCAAC | -3.33 ± 0.25 | -2.87 ± 0.35
GAUAAGCAAUAUUACGUAAG | -2.38 ± 0.088 | -0.896 ± 0.11
GAGCAGCAAUAUUACGGGAC | -2.82 ± 0.19 | -2.74 ± 0.15
AAUUAGCAAUAUUACGGGAA | -1.88 ± 0.32 | -1.88 ± 0.3
AACAAGCAAUAUUACGGAGU | -2.72 ± 0.07 | -1.58 ± 0.078
AUUAAGCAAUAUUACGGUCC | -0.321 ± 0.14 | -0.358 ± 0.19
GCACAGCAAUAUUACGUGAU | -0.331 ± 0.029 | 0.114 ± 0.044
CGGAAGCAAUAUUACGCGUA | -2.96 ± 0.29 | -2.47 ± 0.25
CGCGAGCAAUAUUACGGUUU | -4.02 ± 0.22 | -2.55 ± 0.18
GGAGAGCAAUAUUACGGAAG | -2.47 ± 0.32 | -0.843 ± 0.41
UCUCAGCAAUAUUACGACAA | -1.98 ± 0.25 | -1.31 ± 0.27
AUGAAGCAAUAUUACGGGAC | -2.09 ± 0.32 | -1.65 ± 0.43
UGCGAGCAAUAUUACGUAAU | -2.35 ± 0.22 | -1.91 ± 0.24
AGUGAGCAAUAUUACGUGUU | -4.67 ± 0.46 | -3.04 ± 0.25
UAGUAGCAAUAUUACGACAU | -2.049 ± 0.018 | -0.934 ± 0.034
ACGUAGCAAUAUUACGUGGA | -3.46 ± 0.32 | -2.2 ± 0.23
AAACAGCAAUAUUACGACAA | -0.939 ± 0.095 | -0.417 ± 0.11
ACUCAGCAAUAUUACGGGGU | -3.84 ± 0.19 | -2.84 ± 0.2
UGUGAGCAAUAUUACGUUAA | -2.97 ± 0.31 | -2.44 ± 0.37
AAUUAGCAAUAUUACGACGU | 0.421 ± 0.095 | -0.3 ± 0.075
AGAAAGCAAUAUUACGGAGU | -2.55 ± 0.11 | -1.11 ± 0.11
UAGCAGCAAUAUUACGGUCG | 0.0447 ± 0.066 | 0.482 ± 0.094
CACUAGCAAUAUUACGCUAA | -3.33 ± 0.3 | -1.75 ± 0.19

Sequence | self-splicing fitness (ln) (30 °C) | self-splicing fitness (ln) (37 °C)
CGAUAGCAAUAUUACGACUG | -0.203 ± 0.083 | 0.803 ± 0.1
CUUCAGCAAUAUUACGUAGG | -1.49 ± 0.1 | -0.863 ± 0.12
GACUAGCAAUAUUACGUUGU | -3.19 ± 0.14 | -2.17 ± 0.12
AGCAAGCAAUAUUACGACGC | -1.09 ± 0.11 | 0.048 ± 0.12
CGCAAGCAAUAUUACGGAGA | -3.09 ± 0.18 | -2.54 ± 0.19
ACGUAGCAAUAUUACGGAUC | -1.97 ± 0.096 | -0.313 ± 0.097
GGACAGCAAUAUUACGAGAA | -2.45 ± 0.36 | -1.54 ± 0.25
AGAUAGCAAUAUUACGUAUA | -1.91 ± 0.19 | -2.27 ± 0.28
GAUAAGCAAUAUUACGAUUU | -0.385 ± 0.083 | 1.36 ± 0.12
UGUUAGCAAUAUUACGAUCU | -0.736 ± 0.088 | -0.148 ± 0.12
CGGUAGCAAUAUUACGCUGA | -2.23 ± 0.21 | -0.951 ± 0.2
CCAUAGCAAUAUUACGUCGA | -3.03 ± 0.28 | -2.2 ± 0.27
UAGCAGCAAUAUUACGGGAG | -2.58 ± 0.099 | -2.11 ± 0.11
GCCUAGCAAUAUUACGACGC | -0.302 ± 0.091 | 0.255 ± 0.11
CACCAGCAAUAUUACGAGGU | -3.22 ± 0.12 | -2.53 ± 0.16
CGGCAGCAAUAUUACGCCGA | -2.87 ± 0.29 | -2.76 ± 0.34
GGGCAGCAAUAUUACGUCUC | -2.15 ± 0.23 | -1.41 ± 0.15
UGGAAGCAAUAUUACGUCUC | – | -2.47 ± 0.32
CUUUAGCAAUAUUACGAGUU | – | -2.96 ± 0.4
CGAAAGCAAUAUUACGGUAU | -3.81 ± 0.29 | -1.2 ± 0.19
GAAUAGCAAUAUUACGAAAG | -3.86 ± 0.41 | -2.55 ± 0.27
UAGCAGCAAUAUUACGAGAC | -1.84 ± 0.24 | -3.06 ± 0.32
CGCUAGCAAUAUUACGCUCG | -1.72 ± 0.22 | -1.02 ± 0.4
CCUGAGCAAUAUUACGCACG | -3.16 ± 0.47 | -2.09 ± 0.37
